Assay results taken from paper PMC6009097, “Design and biological characterization of novel cell-penetrating peptides preferentially targeting cell nuclei and subnuclear regions” (Beilstein Journal of Organic Chemistry, 2018).
Marks after values point to notes of the source that are not given here. Where no end group is shown, it is not given here.

Experiments:
MCF-7 cells [1] = test: Cytotoxicity of doxorubicin co-incubated with peptides (resazurin viability assay); format: cell-based; settings: 48 h
Experimental: (§1) Fluorescence microscopic images after 30 min incubation in HeLa (A) and MCF-7 (B) cells with 10 μM CF-labeled peptides N50-sC18* or NrTP-sC18* co-incubated with 10 μg/mL doxorubicin at 37 °C, respectively. Cells treated with DOX alone served as negative control; Green: CF-labeled peptide; blue: Hoechst 33342 nuclear stain; red: doxorubicin; scale bar is 10 µm. (C) Cells were incubated for 48 h with DOX (1 µg/mL), or solutions out of peptides (10 µM) and DOX (1 µg/mL), or peptide solutions (10 µM) alone. Untreated cells served as negative control, cells treated for 10 min with 70% ethanol as positive control. Experiments were conducted in triplicate with n = 2.
Herein, the drug alone (1 μg/mL) or in presence of 10 μM solutions of the peptides sC18*, N50-sC18* and NrTP-sC18*, respectively, were incubated for 48 h with MCF-7 cells.
(§2) A total volume of 200 μL of cells (HeLa 40’000, MCF-7 50’000 cells per well) were seeded in 96-well plates and grown to 70–80% confluency. Afterwards, they were incubated with peptide or doxorubicin solutions (diluted in serum-free medium) in a total volume of 100 μL. In the wells that served as positive and negative controls, the medium was replaced by fresh medium without FBS. The plates were incubated for 24 h or 48 h at 37 °C. Afterwards, the positive control was treated with 100 μL of 70% EtOH for 10 min, and then all cells were washed with PBS. Cells were covered with 100 μL of a 10% resazurin solution in medium without FBS and incubated for 1–2 h at 37 °C. Afterwards, fluorescence was quantified by using a Tecan infinite M200 plate reader (excitation: 550 nm, emission: 595 nm).
Experiments were done in triplicate.

HeLa cells [2] = test: Doxorubicin uptake on co-administration, fluorescence microscopy; format: cell-based; settings: DOX 10 µg/mL, 30 min, 37 °C
Experimental: (§3) Doxorubicin is known to be fluorescent and this property was used to test if the peptides were able to enhance the intracellular uptake of the drug. Therefore, solutions out of DOX and the sequences N50-sC18* and NrTP-sC18* were incubated with HeLa and MCF-7 cells, respectively, and observed for red fluorescence afterwards (Figure 7A and 7B).
as §1, with “Figure 7 Uptake and delivery of DOX into HeLa and MCF-7 cells. Fluorescence” for “Fluorescence”
(§4) Cells were seeded in 350 μL medium in an 8-well ibidi plate (HeLa 45,000, MCF-7 70,000 cells per well) and were grown to 70–80% confluency. […] After adding 300 μL of fresh medium, pictures were taken using a fluorescence confocal microscope. […]

MCF-7 cells [3] = test: as above; format: cell-based; settings: MCF-7, DOX 10 µg/mL, 30 min, 37 °C
Experimental: as §3
as §1, with “Figure 7 Uptake and delivery of DOX into HeLa and MCF-7 cells. Fluorescence” for “Fluorescence”
as §4

[4] = Circular dichroism spectroscopy (secondary structure); format: physicochemical; settings: 10 mM phosphate buffer pH 7.0 with TFE (50%), peptide 20 µM
Experimental: First, we performed a structural analysis by diluting all peptides to a concentration of 20 μM in phosphate buffer (pH 7.0), with or without the presence of the secondary structure inducing solvent trifluoroethanol (TFE).
Figure 1 Circular dichroism spectra of the novel peptides solved in 10 mM phosphate buffer (pH 7) (A), or phosphate buffer with the addition of TFE (50%) (B). Peptide concentration was 20 µM. (C) Helical wheel projections of the peptides N50-sC18* and NrTP-sC18*, respectively.
All peptides were analyzed in 10 mM potassium phosphate buffer (pH 7.0) with or without the addition of TFE (1:1 dilution) using a peptide concentration of 20 µM. Peptides were measured in a 0.1 cm quartz cuvette with a sensitivity of 100 mdeg in the range from 260 to 180 nm in 0.5 nm intervals. The scanning mode was continuous and a scanning speed of 50 nm/min was chosen. The results of pure buffer were subtracted from the spectra of the peptides. The ratio between the molar ellipticity at 222 nm and 207 nm was used to confirm an α-helical structure of peptides.

HeLa cells [5] = test: Resazurin-based cell viability assay; settings: 24 h; for concentration up to which no significant toxicity was observed: 37 °C, serum-free medium, resazurin read-out, n = 3 in triplicate
Experimental: (§5) In the next step, the cytotoxicity profiles of the novel peptide chimera were investigated. Therefore, we chose two different cancer cell lines, namely breast cancer MCF-7 and cervix carcinoma HeLa cells, which were exposed for 24 h to various concentrations of the peptides sC18*, N50, N50-sC18*, NrTP and NrTP-sC18* (Figure 2).
(§6) Figure 2 Cytotoxicity profiles of the peptides in MCF-7 and HeLa cells. Cells were incubated for 24 h with different concentrations of peptide solutions. Untreated cells served as negative control, cells treated with 70% ethanol as positive control. Values from the positive control were subtracted from all data, and the untreated cells were set to 100%; assays were performed with n = 3 in triplicate.
as §2
To achieve comparably results, the positive control was subtracted from all data and the negative control was set to 100%, so that the results of the peptide-treated cells represent relative cell viability values in %. Experiments were done in triplicate.
Peptide solutions of 1, 5, 10,
25, 40, 55, 70, 85 and 100 µM were incubated with HeLa cells (24 h, 37 °C). Afterwards a resazurin-based cell
viability assay was performed according to the experimental part.
(1 picture or pasted object on this page, not shown here)

HeLa cells [6] = test: Cellular uptake, confocal fluorescence microscopy; format: cell-based; settings: 10 µM CF-labeled peptide, 30 min, 37 °C; for cellular uptake (microscopy): trypan blue quench
Experimental: (§7) Next, we analyzed the intracellular fate of the new peptide variants using confocal fluorescence microscopy. Thus, MCF-7 and HeLa cells were incubated with 10 µM peptide solutions at 37 °C and inspected after 30 min (Figure 3).
(§8) Figure 3 Cellular uptake in HeLa and MCF-7 cells. Cells were incubated for 30 min with 10 µM of CF-labeled peptide solutions. Green: CF-labeled peptide; blue: Hoechst 33342 nuclear stain; scale bar is 10 µm.
(§9) For microscopic analyses, a confocal laser scanning system (Nikon D-Eclipse C1) with an inverted microscope (Nikon Eclipse Ti) was used. Pictures were taken with a 60× oil immersion objective (N.A. 1.4, Plan APO VC; Nikon) using the software EZ-C1 3.91 from Nikon.
(§10) Cells were seeded in 350 μL medium in an 8-well ibidi plate (HeLa 45,000, MCF-7 70,000 cells per well) and were grown to 70–80% confluency. Then, the medium was removed and the cells were treated with the peptides and substances in various concentrations for the requested time. Cells were incubated at 4 °C or 37 °C and 10 min prior to the end of incubation 0.6 μL of Hoechst stain (bisbenzimide H33342, 1 mg/mL in H2O, sterile filtered) was added to each well to stain the cell nuclei. After removing the solutions, cells were quenched with 200 μL of 150 μM trypan blue solution (in acetate buffer) for 30 s. The stain was removed and the cells were washed twice with medium. After adding 300 μL of fresh medium, pictures were taken using a fluorescence confocal microscope. Images were edited in Image J 1.43m.

MCF-7 cells [7] = test: Cellular uptake, confocal fluorescence microscopy; format: cell-based; settings: MCF-7, 10 µM CF-labeled peptide, 30 min; for cellular uptake (microscopy) / intracellular distribution: 37 °C, confocal fluorescence; for cellular uptake (microscopy): trypan blue quench
Experimental: as §7, §8, §9, §10

HeLa cells [8] = test: Cellular uptake, confocal fluorescence microscopy; format: cell-based; settings: 1 μM CF-labeled peptide, 37 °C; for cellular uptake (microscopy) at 1 μM: 30 and 120 min; for intracellular distribution at 1 μM: 30 or 120 min
[9] = system: several different cell lines; settings: cited from earlier work
Experimental: Within their studies, the authors used higher concentrations, longer incubation times and other cell lines, what could probably explain the different results obtained in our study. In fact, it is very likely that working with increased concentrations of the NrTP sequence could probably improve the cell-penetrating capability of this peptide. Also for the N50 sequence alone, the internalization ability in several different cell lines was already determined [[2 ...

MCF-7 cells [10] = test: Resazurin-based cell viability assay; settings: 24 h, 37 °C, serum-free medium, resazurin read-out, n = 3 in triplicate
Experimental: as §5, §6
as §2, with “Afterwards, the positive control was treated with 100 μL of 70% EtOH for 10 min, and then all cells were washed with PBS. Cells were covered with 100 μL of a 10% resazurin solution in medium without FBS and incubated for 1–2 h at 37 °C.” left out, “nm). […]” for “nm).”

HeLa cells [11] = test: Cellular uptake quantified by flow cytometry; format: cell-based; settings: 10 µM peptide, 30 min, 37 °C, serum-free medium, 10,000 cells, triplicate
Experimental: (§11) Figure 4 Cellular uptake in MCF-7 and HeLa cells was quantified by flow cytometry. Cells were incubated with 10 µM peptide solutions for 30 min at 37 °C.
(§12) Cells were seeded in 24-well plates (HeLa 170,000, MCF-7 200,000 cells per well) and grown to 70–80% confluency. Then, cells were treated with 400 μL of peptide solutions dissolved in serum-free medium for the appropriate time at 4 °C or 37 °C. Afterwards, the cells were washed twice with PBS and detached with Trypsin-EDTA 1× in PBS without phenol red for 3–5 min followed by adding 800 μL of indicator-free medium. Cells were resuspended and 200 μL of the suspension were transferred to a 96-well plate for measuring the fluorescence in the Guava® easyCyte flow cytometer (Merck). In each sample, 10,000 cells were measured and each experiment was done in triplicate. Cells treated with medium only served as negative control and their fluorescent signal was subtracted from all other samples in each set of experiment.

MCF-7 cells [12] = test: Cellular uptake quantified by flow cytometry; format: cell-based; settings: MCF-7, 10 µM peptide, 30 min, 37 °C, serum-free medium, 10,000 cells, triplicate
Experimental: as §11, §12

[13] = MCF-7, peptide 10 μM + DOX 1 μg/mL

| Compound | secondary structure (CD) [4] | concentration up to which no significant toxicity was observed (HeLa cells [5]; HeLa cells) | cellular uptake (microscopy) (HeLa cells [6]) | cellular uptake (microscopy) (MCF-7 cells [7]) | effect of the peptide on the toxic effect / efficacy of DOX (MCF-7 cells [1]; [13]) | cellular uptake (microscopy) at 1 μM (HeLa cells [8]) | concentration up to which no toxic effects were observed (MCF-7 cells [10]) | intracellular distribution (HeLa cells [6]) | intracellular distribution at 4 °C (MCF-7 cells [7]) | intracellular distribution (MCF-7 cells [7]) | cellular uptake (flow cytometry) (HeLa cells [11]) | cellular uptake (flow cytometry) (MCF-7 cells [12]) | intracellular distribution at 1 μM (HeLa cells [8]) | also measured |
| --- | --- | --- | --- | --- | --- | --- | --- | --- | --- | --- | --- | --- | --- | --- |
| COc1cccc2c1C(=O)c1c(O)c3c(c(O)c1C2=O)C[C@@](O)(C(=O)CO)C[C@@H]3O[C@H]1C[C@H](N)[C@H](O)[C@H](C)O1 [doxorubicin] | – | – | – | – | – | – | – | – | – | – | – | – | – | amount of viable cells, doxorubicin alone (MCF-7 cells [1]; MCF-7, DOX 1 μg/mL, triplicate with n = 2): about 60%; red fluorescence of DOX in cells, DOX only (HeLa cells [2]): Minor red fluorescence; red fluorescence of DOX in cells, DOX only (MCF-7 cells [3]): Minor red fluorescence |
| GLRKRLRKFRNK [sC18*, shortened version of the cell-penetrating peptide sC18, lacking its four C-terminal amino acids] | α-helical character | ≤ 50 µM | only small dots were detectable | only small dots were detectable | could not enhance the efficacy of DOX | no uptake at all | – | – | – | – | – | – | – | – |
| VQRKRQKLMP [N50, reference compound] | random coil structure | ≤ 50 µM | not noticeable present | not noticeable present | – | no uptake at all | – | – | – | – | – | – | – | internalization ability / uptake [9]: very low |
| VQRKRQKLMPGLRKRLRKFRNK [N50-sC18*] | formed α-helices | ≤ 50 µM | entered the cells extremely efficiently compared to sC18* alone | entered the cells extremely efficiently compared to sC18* alone | significantly improved | – | ≤ 100 µM | distributed within the whole cell cytosol, and accumulated particularly around the nucleus | mainly detectable within the nuclei | distributed within the whole cell cytosol, and accumulated particularly around the nucleus | extremely high uptake | extremely high uptake | diffusely distributed within the cytosol and the nuclei of HeLa cells, and after 120 min it mainly accumulated within the nuclei | R-value (ratio between the molar ellipticity at 222 nm and 207 nm) ([4]; CD): 0.83; number of viable cells after co-treatment with DOX (MCF-7 cells [1]; MCF-7, peptide 10 μM + DOX 1 μg/mL, triplicate with n = 2): 30% |
| YKQCHKKGGKKGSGGLRKRLRKFRNK-NH2 [NrTP-sC18*] | – | ≤ 50 µM | entered the cells extremely efficiently compared to sC18* alone | entered the cells extremely efficiently compared to sC18* alone | – | – | ≤ 100 µM | strong accumulation within the nucleoli | evenly distributed throughout the whole cell, including strong accumulation in the nuclei | strong accumulation within the nucleoli | extremely high uptake | extremely high uptake | accumulates in endosomes | IC50 (HeLa cells [5]): 53.7 ± 4.79 µM; effect on cell viability at 50 µM (HeLa cells [5]; HeLa cells, 50 µM): seemed to affect cell viability; effect on cell viability at higher concentrations (HeLa cells [5]; HeLa cells, concentrations above 50 µM): all cells were dead |
